Reference: article PMC4931181 (The EMBO Journal, 2016)
Residue numbers refer to the chain shown, from its start. Several values for one entry are separate records, joined by “and”; a condition that tells them apart may be missing. Equal entries are not always repeated.

Key:
[1] = molecular target: Xenopus laevis histone H2B (28–126) (Xenopus laevis, UniProt P02281 28-126); assay: crystal structure
native MS = molecular target: the molecule itself; assay: native MS

B1: Saccharomyces cerevisiae Nap1 core domain (residues 75–365) (domain or fragment)
chain: GSLVGQDSGYVGGLPKNVKEKLLSLKTLQSELFEVEKEFQVEMFELENKFLQKYKPIWEQRSRIISGQEQPKPEQIAKGQEIVESLNETELLVDEEEKAQNDSEEEQVKGIPSFWLTALENLPIVCDTITDRDAEVLEYLQDIGLEYLTDGRPGFKLLFRFDSSANPFFTNDILCKTYFYQKELGYSGDFIYDHAEGCEISWKDNAHNVTVDLEMRKQRNKTTKQVRTIEKITPIESFFNFFDPPKIQNEDQDEELEEDLEERLALDYSIGEQLKDKLIPRAVDWFTGAAL
binding result [1]: binds | stoichiometry N (native MS): 2 and 4 and 6

B2: yNap1cΔ (core 75–365 with in-frame deletion of the β5–β6 region, Δ284–308) (domain or fragment)
chain: GSLVGQDSGYVGGLPKNVKEKLLSLKTLQSELFEVEKEFQVEMFELENKFLQKYKPIWEQRSRIISGQEQPKPEQIAKGQEIVESLNETELLVDEEEKAQNDSEEEQVKGIPSFWLTALENLPIVCDTITDRDAEVLEYLQDIGLEYLTDGRPGFKLLFRFDSSANPFFTNDILCKTYFYQKELGYSGDFIYDHAEGCEISWKDNAHNVIESFFNFFDPPKIQNEDQDEELEEDLEERLALDYSIGEQLKDKLIPRAVDWFTGAAL
binding result (native MS): binds

B3: yNap1cΔ_G225D (domain or fragment)
chain: B2 chain with G151D
stoichiometry N (native MS): 2

B4: Saccharomyces cerevisiae Nap1 full-length (residues 1–417) (natural protein)
chain: MSDPIRTKPKSSMQIDNAPTPHNTPASVLNPSYLKNGNPVRAQAQEQDDKIGTINEEDILANQPLLLQSIQDRLGSLVGQDSGYVGGLPKNVKEKLLSLKTLQSELFEVEKEFQVEMFELENKFLQKYKPIWEQRSRIISGQEQPKPEQIAKGQEIVESLNETELLVDEEEKAQNDSEEEQVKGIPSFWLTALENLPIVCDTITDRDAEVLEYLQDIGLEYLTDGRPGFKLLFRFDSSANPFFTNDILCKTYFYQKELGYSGDFIYDHAEGCEISWKDNAHNVTVDLEMRKQRNKTTKQVRTIEKITPIESFFNFFDPPKIQNEDQDEELEEDLEERLALDYSIGEQLKDKLIPRAVDWFTGAALEFEFEEDEEEADEDEDEEEDDDHGLEDDDGESAEEQDDFAGRPEQAPECKQS
stoichiometry N (native MS): 2 and 4 and 6
